Measured values from patent US20240174727A1, “LONG-ACTING NATRIURETIC PEPTIDES AND USES THEREOF” (Eli Lilly and Company, priority 2022, published 2024).
Residue numbers refer to the chain shown, from its start.

B1: Example 49 (peptide)
peptide: XEKEKEKGEKERSSCFGGRIDRIGHYSGLGCPSFRHGGPSSGAPPPS
modifications: HOOC-(CH2)18-CO-(γGlu)-EKEKEKGEKERSS[CFGGRIDRIGHYSGLGC]PSFRHGGPSSGAPPPS-NH2; disulfide linkage between the bracketed Cys
B2: Example 23 (peptide)
peptide: XEKEKEKGSXRRSSCFGGRIDRIGAQSGLGCPSFRXGGPSSGAPPPS
modifications: HOOC-(CH2)18-CO-(γGlu)-EKEKEKGS-4Pal-RRSS[CFGGRIDRIGAQSGLGC]PSFR-4Pal-GGPSSGAPPPS-NH2; disulfide linkage between the bracketed Cys
B3: Example 36 (peptide)
peptide: B2 peptide with R19K, A25H, X36H
modifications: HOOC-(CH2)18-CO-(γGlu)-EKEKEKGS-4Pal-RRSS[CFGGKIDRIGHQSGLGC]PSFRHGGPSSGAPPPS-NH2; disulfide linkage between the bracketed Cys
B4: Example 35 (peptide)
peptide: B2 peptide with R11K, A25H, X36H
modifications: HOOC-(CH2)18-CO-(γGlu)-EKEKEKGS-4Pal-KRSS[CFGGRIDRIGHQSGLGC]PSFRHGGPSSGAPPPS-NH2; disulfide linkage between the bracketed Cys
B5: Example 47 (peptide)
peptide: XEKEKEKGRSSCFGGKIDRIGHYSGLGCPSFRHKGPSSGAPPPS
modifications: HOOC-(CH2)18-CO-(γGlu)-EKEKEKGRSS[CFGGKIDRIGHYSGLGC]PSFRHKGPSSGAPPPS-NH2; disulfide linkage between the bracketed Cys
B6: Example 50 (peptide)
peptide: XEKEKEKGEKGRSSCFGGRIDRIGHYSGLGCPSFRHKGGPSSGAPPPS
modifications: HOOC-(CH2)18-CO-(γGlu)-EKEKEKGEKGRSS[CFGGRIDRIGHYSGLGC]PSFRHKGGPSSGAPPPS-NH2; disulfide linkage between the bracketed Cys
B7: Example 97 (peptide)
peptide: SXRRSSCFGGRIDRIGHYSGLGCPSFRHGGPPSXKPPPK
modifications: HOOC-(CH2)18-CO-(γGlu)-EKEKEKG-(AEEA)6-S-4Pal-RRSS[CFGGRIDRIGHYSGLGC]PSFRHGGPPS-Aib-KPPPK-NH2; thioacetal linkage between the bracketed Cys

Biological target: T1, human NPRA (human, UniProt P16066 33-1061)
T1 sequence (looked up): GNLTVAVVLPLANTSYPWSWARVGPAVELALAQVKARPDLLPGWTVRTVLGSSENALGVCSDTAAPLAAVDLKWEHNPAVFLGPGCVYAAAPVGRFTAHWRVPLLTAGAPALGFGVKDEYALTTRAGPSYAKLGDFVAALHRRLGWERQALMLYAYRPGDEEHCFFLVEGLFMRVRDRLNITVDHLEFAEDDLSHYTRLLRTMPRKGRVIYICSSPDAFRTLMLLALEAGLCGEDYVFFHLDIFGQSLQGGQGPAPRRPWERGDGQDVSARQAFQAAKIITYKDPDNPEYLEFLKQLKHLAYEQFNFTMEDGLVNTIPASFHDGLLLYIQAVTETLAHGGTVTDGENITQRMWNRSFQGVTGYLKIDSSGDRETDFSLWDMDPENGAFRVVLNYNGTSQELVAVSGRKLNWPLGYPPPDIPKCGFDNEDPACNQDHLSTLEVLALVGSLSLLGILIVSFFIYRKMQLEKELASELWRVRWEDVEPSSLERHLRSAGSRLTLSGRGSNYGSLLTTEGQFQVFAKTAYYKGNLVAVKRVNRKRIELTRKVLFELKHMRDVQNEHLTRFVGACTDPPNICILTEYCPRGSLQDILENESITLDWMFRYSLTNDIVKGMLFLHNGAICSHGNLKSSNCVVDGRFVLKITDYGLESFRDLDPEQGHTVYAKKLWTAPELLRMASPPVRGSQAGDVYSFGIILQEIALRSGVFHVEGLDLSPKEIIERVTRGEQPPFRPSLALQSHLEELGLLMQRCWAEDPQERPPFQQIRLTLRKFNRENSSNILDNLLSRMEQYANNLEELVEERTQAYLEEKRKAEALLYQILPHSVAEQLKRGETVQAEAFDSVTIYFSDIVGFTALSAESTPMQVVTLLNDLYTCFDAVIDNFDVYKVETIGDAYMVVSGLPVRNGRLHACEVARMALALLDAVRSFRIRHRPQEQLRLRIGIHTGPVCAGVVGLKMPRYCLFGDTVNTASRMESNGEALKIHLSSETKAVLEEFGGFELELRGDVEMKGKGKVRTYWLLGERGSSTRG
Assay: cell-based or functional assay

Row | Binder | cGMP Assay (EC50, pM) w/Casein [pM]
1 | B1 | 299
2 | B2 | 3490
3 | B3 | 118
4 | B4 | 118
5 | B5 | 299
6 | B6 | 614
7 | B7 | 720
